Assay results reported in paper PMC9277888, “The testis-specific E3 ubiquitin ligase RNF133 is required for fecundity in mice” (BMC Biology, 2022).
Where two headings read alike, the source gives them in different places. Values belong to the molecule of their own block, whether it stands above or below them.

Columns and labels:
human HA-UBE2J1 = biological target: T1, human HA-UBE2J1 (human, UniProt Q9Y385 1-318); experiment: co-IP; HEK293 cells co-transfected with FLAG-tagged E3 and HA-tagged E2; lysed by sonication in Pierce IP buffer (25 mM Tris-HCl pH 7.4, 150 mM NaCl, 1 mM EDTA, 1% NP-40, 5% glycerol); anti-HA magnetic beads, 4 C, 1 h; washed with IP buffer with 2 mM DTT; immunoblot with anti-FLAG; band intensities by ImageJ (IP lane to input lane)
T1 construct: E2 ubiquitin-conjugating enzyme UBE2J1, human, full-length open reading frame; also called pCAG-humanUBE2J1; source: HEK293 cells, transfected (pCAG1.1, Lipofectamine 3000), in lysate; not shown: HA, N-terminal, kept
T1 sequence (looked up): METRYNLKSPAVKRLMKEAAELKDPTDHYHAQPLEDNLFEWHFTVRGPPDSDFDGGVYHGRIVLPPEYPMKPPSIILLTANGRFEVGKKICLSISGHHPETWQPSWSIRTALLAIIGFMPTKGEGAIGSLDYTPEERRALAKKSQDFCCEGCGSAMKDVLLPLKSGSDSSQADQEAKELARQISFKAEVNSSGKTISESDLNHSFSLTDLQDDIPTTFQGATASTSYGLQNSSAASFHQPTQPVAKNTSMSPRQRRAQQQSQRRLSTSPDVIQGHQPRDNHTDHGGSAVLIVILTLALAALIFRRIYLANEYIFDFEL

mouse HA-UBE2J1 = biological target: T2, mouse HA-UBE2J1 (mouse, UniProt Q9JJZ4 1-318); experiment: as above; conditions: partners not purified
T2 construct: E2 ubiquitin-conjugating enzyme UBE2J1, mouse, full-length open reading frame; also called pCAG-mouseUbe2J1; source: HEK293 cells, transfected (pCAG1.1, Lipofectamine 3000), in lysate; not shown: HA, N-terminal, kept
T2 sequence (looked up): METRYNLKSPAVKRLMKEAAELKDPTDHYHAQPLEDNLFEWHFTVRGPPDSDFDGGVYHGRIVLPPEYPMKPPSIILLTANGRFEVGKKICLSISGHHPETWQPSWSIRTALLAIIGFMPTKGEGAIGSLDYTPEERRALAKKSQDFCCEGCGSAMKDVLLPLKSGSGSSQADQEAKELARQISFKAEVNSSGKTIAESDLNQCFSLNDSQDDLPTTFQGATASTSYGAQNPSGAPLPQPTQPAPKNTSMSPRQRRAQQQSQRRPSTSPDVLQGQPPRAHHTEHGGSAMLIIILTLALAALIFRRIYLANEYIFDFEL

IP:input ratio (band intensity) (human HA-UBE2J1): 0.24
Molecule: human RNF133-mutant-FLAG (RING finger domain deleted) (from UniProt Q8WVZ7 1-376) (enzyme)

IP:input ratio (band intensity) (mouse HA-UBE2J1): 3.95
B1: mouse RNF133-FLAG (RING finger protein 133) (enzyme, UniProt Q14B02 1-382, looked up)
chain: MNPLQTSTWQNQAPSFWLLRFSFIWLVSQKCCTASAVWTAYMNISFHVGNRMLSELGETGVFGRSSILKRVAGVVVPPEGKIQNACDPNTTFILPRNKEPWIALIERGGCAFTQKIKVASEHGARGVIIYNFPGTGNQVFPMSHQAFEDIVVVMIGNIKGMEILHLIRKGVHVTVMVEVGRKHVIWLNHYFVSFMIVTTATLAYFTFYHIRRLWVARIENRRWKRLTRELKKAFGQLQVRVLKEGDEEVNPNADSCVICFEAYKPNEIVRILTCKHFFHKNCIDPWILAHGTCPMCKCDILKALGIQMDIEDGTDSLQVLMSNELPGTLSPVEEETNYELPPARTSSKVTHVQEHPTSSANAGSQPPEAEETSHPSHGQQVL
notes: also called mouse RNF133-WT; pCAG-mouseRnf133; source: HEK293 cells, transfected (pCAG1.1, Lipofectamine 3000), in lysate; not shown: FLAG, C-terminal, kept

IP:input ratio (band intensity) (human HA-UBE2J1; partners not purified): 1.74
B2: human RNF133-FLAG (RING finger protein 133) (enzyme, UniProt Q8WVZ7 1-376, looked up)
chain: MHLLKVGTWRNNTASSWLMKFSVLWLVSQNCCRASVVWMAYMNISFHVGNHVLSELGETGVFGRSSTLKRVAGVIVPPEGKIQNACNPNTIFSRSKYSETWLALIERGGCTFTQKIKVATEKGASGVIIYNVPGTGNQVFPMFHQAFEDVVVVMIGNLKGTEIFHLIKKGVLITAVVEVGRKHIIWMNHYLVSFVIVTTATLAYFIFYHIHRLCLARIQNRRWQRLTTDLQNTFGQLQLRVVKEGDEEINPNGDSCVICFERYKPNDIVRILTCKHFFHKNCIDPWILPHGTCPICKCDILKVLGIQVVVENGTEPLQVLMSNELPETLSPSEEETNNEVSPAGTSDKVIHVEENPTSQNNDIQPHSVVEDVHPSP
notes: also called human RNF133-WT; RNF133 wild-type; source: HEK293 cells, transfected (pCAG1.1, Lipofectamine 3000), in lysate; not shown: FLAG, C-terminal, kept
